{
  "source": "patent US20190375815A1",
  "about": "(Novartis, published 2019)",
  "binders": {"B1": {"name": "CD19scFv-G4S-CD3gECDTM-41BB (other)", "chain": "EIVMTQSPATLSLSPGERATLSCRASQDISKYLNWYQQKPGQAPRLLIYHTSRLHSGIPARFSGSGSGTDYTLTISSLQPEDFAVYFCQQGNTLPYTFGQGTKLEIKGGGGSGGGGSGGGGSQVQLQESGPGLVKPSETLSLTCTVSGVSLPDYGVSWIRQPPGKGLEWIGVIWGSETTYYSSSLKSRVTISKDNSKNQVSLKLSSVTAADTAVYYCAKHYYYGGSYAMDYWGQGTLVTVSSGGGGSQSIKGNHLVKVYDYQEDGSVLLTCDAEAKNITWFKDGKMIGFLTEDKKKWNLGSNAKDPRGMYQCKGSQNKSKPLQVYYRMCQNCIELNAATISGFLFAEIVSIFVLAVGVYFIAKRGRKKLLYIFKQPFMRPVQTTQEEDGCSCRFPEEEEGGCEL", "notes": "Chimeric membrane protein: CD19 scFv, G4S linker, CD3 gamma extracellular and transmembrane domains, 4-1BB; Expressed on JNL (Jurkat NFAT luciferase) cells by lentiviral transduction, alone or together with the CD22 TCAR (CD19/22 dual TCAR cells); also called CD19-TCAR; CD19 TCAR"}},
  "target": "T1, CD22-Fc (UniProt P20273 20-687, limits assumed)",
  "T1 construct": "Soluble staining reagent, detected with an anti-Fc secondary antibody; not shown: Fc part",
  "T1 sequence (looked up)": "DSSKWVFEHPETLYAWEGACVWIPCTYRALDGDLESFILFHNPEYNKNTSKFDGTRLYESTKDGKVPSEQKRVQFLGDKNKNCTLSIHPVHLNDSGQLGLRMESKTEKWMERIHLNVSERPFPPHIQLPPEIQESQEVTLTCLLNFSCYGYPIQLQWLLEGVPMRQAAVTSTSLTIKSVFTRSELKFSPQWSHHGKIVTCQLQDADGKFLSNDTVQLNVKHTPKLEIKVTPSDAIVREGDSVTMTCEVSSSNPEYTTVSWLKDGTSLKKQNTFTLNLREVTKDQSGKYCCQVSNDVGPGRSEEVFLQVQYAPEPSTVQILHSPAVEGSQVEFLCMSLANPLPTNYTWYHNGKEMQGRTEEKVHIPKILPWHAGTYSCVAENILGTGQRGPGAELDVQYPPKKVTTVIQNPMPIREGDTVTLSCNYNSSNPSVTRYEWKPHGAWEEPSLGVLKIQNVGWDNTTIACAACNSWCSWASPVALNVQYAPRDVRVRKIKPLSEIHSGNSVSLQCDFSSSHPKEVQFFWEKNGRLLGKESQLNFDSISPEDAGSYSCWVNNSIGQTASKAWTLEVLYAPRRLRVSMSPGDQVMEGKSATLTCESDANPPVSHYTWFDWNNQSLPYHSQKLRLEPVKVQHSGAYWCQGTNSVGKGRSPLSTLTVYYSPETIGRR",
  "assay": "flow cytometry of transduced JNL cells stained with CD22-Fc and anti-Fc secondary antibody",
  "excerpt": "The Jurkat NFAT Luciferase (JNL) reporter cell line is based on the acute T cell leukemia line Jurkat. The line was modified to express luciferase under control of the Nuclear Factor of Activated T cells (NFAT) response element. For the transduction with TCARs, 400,000 JNL cells/well of a 12-well plate were transduced with a multiplicity of infection (MOI) of 1.5. Frozen virus-containing supernatant was thawed at room temperature and added to the respective wells. One well each was transduced with CD19-TCAR, CD22-TCAR, or CD19-TCAR plus CD22-TCAR (“CD19/22 dual TCAR”) at MOI=1.5 each. The plates were cultured for 6 days.\nTCAR-expressing T cells were tested for their target binding capability by flow cytometry. Non-transduced (UTD), CD19-TCAR, CD22-TCAR and CD19/22 dual TCAR expressing JNL cells were tested: cells were stained with CD22-Fc for 30 min at 4° C. After a wash, cells were stained with anti-Fc secondary antibody for 30 min at 4° C. After a second wash, cells were stained with CD19-CAR anti-idiotype antibody (Ab) for 30 min at 4° C. Cells were then analyzed on a FACS LSR Fortessa after a last wash. Data was analyzed using FlowJo software. […] CD22-TCAR expressing cells bound CD22-Fc but were not stained with the CD19-CAR anti-idiotype Ab (FIG. 47C).",
  "data": [
    {"binder": "B1", "values": [
      {"measurement": "binding result", "result": "no binding"}
    ]}
  ]
}
